Test results: patent US20190127480A1 (Regeneron, published 2019)
Residue numbers refer to the chain shown, from its start.

B1: H1H5757B (antibody, human IgG1, V domains shown)
VH: EVQLVESGGGVVQPGRSLRLSCAASGFTFSSYGMHWVRQAPGKGLEWVTVILHDGSNRYSADSVKGRFTISRDNSKNTLYLQMNILRVEDTAVYYCTKGAMVRGVPYNHYYGMDVWGQGTTVTVSS
VL: DIQMTQSPSSLSASVGDRVTITCRASQGIRNDLGWYQQKPGKAPKRLIYAASILQSGVPSRFSGSGSGTEFTLTISSLQPEDFATYYCLQHNSYPYTFGQGTKLEIKR
notes: H1H: human IgG1 Fc; divalent
B2: H1H5758B (antibody, human IgG1, V domains shown)
VH: B1 VH with S60Y, V88A
VL: B1 VL with Q3V, I53N
notes: H1H: human IgG1 Fc; divalent
B3: H1H5756B (antibody, human IgG1, V domains shown)
VH: EVQLVESGGGVVQPGRSLRLSCTASGFPFSRYGMHWVRQAPGKGLEWVTFIWYDGSNKYYADSAKGRFTITRDNSKNTVYLQMDSLRADDTAVYYCVRDQAALYYFDSWGQGTLVTVSS
VL: DIQMTQSPSSVSASVGDRVTITCRASQGISRWLAWYQQKPGKAPKLLISAASSLQSGVPSRFSGSGSGTDFTLTISGLQPEDFATYYCQKANSFPFTFGPGTKLEIKR
notes: H1H: human IgG1 Fc; divalent
B4: H1H5793B (antibody, human IgG1, V domains shown)
VH: QVQLVQSGTEVKKPGASMKVSCKASGYTFTGYYIHWVRQAPGQGLEWMGWINPNSDVTKYAQKFQGRVTLTRDTSISAAYIDLSRLRSDDTAIYYCARMGDGAVFDYWGQGTLVTVSS
VL: DIQLTQSPSSLSASVGDRVTITCRASQRISSYLNWYQQKPGKAPKVLISVASSLQSGVPSRFSGSGFGTDFTLTISSLQPEDSASYYCQQSYNTPLTFGGGTKLEIKR
notes: H1H: human IgG1 Fc; divalent
B5: H1H5786B (antibody, human IgG1, V domains shown)
VH: QVQLVESGAEVKKPGASVKVSCKTSGYTFTGYYMHWIRQAPGQGLEWMGWINPKSGGTNYAQKFQGRVTMTRDTSISTAYMELSRLRSDDMAVYYCARMGDGAVFDFWGQGTLVTVSS
VL: AIQMTQSPSSLSASVGDRVTITCRASQRISSFLNWYQQKPGKAPKLLIYTASNLQNGVPSRFSGSGSGTDFTLTISSLQPEDFATYYCQQSYRTPLTFGGGTKVEIKR
notes: H1H: human IgG1 Fc; divalent
B6: H1H5790B (antibody, human IgG1, V domains shown)
VH: EVQLVESGGGVVQPGRSLRLSCAASGFTFSYYGMHWVRQAPGKGLEWVAVISFDGKNKYYADSVMGRFTISRDNSKNTLYLQMNSLRAEDSAVFFCARSYDILTGYGAGYSYHYGMDVWGQGTTVTVSS
VL: B5 VL
notes: H1H: human IgG1 Fc; divalent
B7: H1H5795B (antibody, human IgG1, V domains shown)
VH: B5 VH with Q1E, T28S, T30I, M34I, I37M, G57V, K63R, R87K, M91T, Y95F
VL: B5 VL with A1D, M4L, A43V, S65T, E105D
notes: H1H: human IgG1 Fc; divalent
B8: H1H5799P (antibody, human IgG1, V domains shown)
VH: B5 VH with E6Q, T24A, T30I, I37V, R72G, M91T, Y94F, V104M, F107Y
VL: DIQMTQSPSSLSASVGDRVTITCRASQRISSYLNWYQQKAGKAPKVLIYTASSLQSGVPSRFSGSGSGTDFTLTISSLQPEDFATYYCQQSYSTPLTFGGGTKVEIK
notes: H1H: human IgG1 Fc; divalent
B9: H1H5791B (antibody, human IgG1, V domains shown)
VH: B5 VH with F29L, T30S, I37M, G57V, G66D, T69A, M91T, G109A
VL: B5 VL with A1D, M4L, V104L
notes: H1H: human IgG1 Fc; divalent
B10: H1H5778P (antibody, human IgG1, V domains shown)
VH: EVQLVESGGGLVQPGRSLRLSCVASGFTFADFTMHWVRQAPGKGLEWVSGISWNSNSIDYADSVKGRFTISRDNAKKSLFLQMSSLRAEDTALYYCVKDRSGYSRFYYGMDVWGQGTTVTVSS
VL: EIVMTQSPATLSVSPGERAILSCRASQNINSNLAWYQQKPGQAPRLLIYGASTRATGVPARFSGSGSGTEFTLTIRSLQSEDFAVYYCQQYYNWPITFGHGTRLEIK
notes: H1H: human IgG1 Fc; divalent
B11: H1H5763P (antibody, human IgG1, V domains shown)
VH: QVQLVESGGGVVQPGRSLRLSCAASGLTFSSYGMHWVRQAPGKGLEWVAVISYDGSNKYYTDSVKGRFTISRDNSKNTLYLQMNSLRAEDTAVYYCAKGAMVRGVPYNYYYGMDVWGQGTTVTVSS
VL: DIQMTQSPSSLSASVGDRVTITCRASQGIRNDLGWYQQKPGKAPKRLIYAASSLQSGVPSRFSGSGSGTEFTLTISSLQPEDFATYYCLQHNSYPYTFGQGTKLEIK
notes: H1H: human IgG1 Fc; divalent
B12: H1H5764P (antibody, human IgG1, V domains shown)
VH: B11 VH with L27F, S30R, Y32F, S56N, N57Y, T61A, Y94H, Y109F
VL: B11 VL with G28V, V58I
notes: H1H: human IgG1 Fc; divalent
B13: H1H5771P (antibody, human IgG1, V domains shown)
VH: EVQLVESGGGLVQPGRSLRLSCAASGFSFDNYAMHWVRQAPGQGLEWVSGISWNSGSRDYADSVKGRFTISRDNARNSLFLQMNSLSNEDTAMYYCAKDKSGYGSYFYGMDVWGQGTTVTVSS
VL: EIVLTQSPGTLSLSPGDRATLSCRASQSIRNIYLAWYQQKPGQAPRLLIHGASTRATGIPDRFSGSGSGTDFTLTISRLEPEDFAVYYCQQRVSLPYTFGQGTKLEIK
notes: H1H: human IgG1 Fc; divalent
B14: H1H5781P (antibody, human IgG1, V domains shown)
VH: EVQLVESGGGLVQPGRSLRLSCAASGFTFDDFTMHWVRQAPGKGLEWVSDISWNSGSIDYADSVKGRFTISRDNARNSLFLQMSSLRTEDTASYYCIKDKSGYGSYNYGLDVWGQGTTVTVSS
VL: B13 VL with I29V, R30S, N31S, V86L, Q90H, L95S
notes: H1H: human IgG1 Fc; divalent
B15: H1H5780P (antibody, human IgG1, V domains shown)
VH: EVQLVESGGGLVQPGRSLRLSCAASGFTFDDYAMHWVRQAPGKGLEWVSGISWNGGSKDYADSVKGRFTISRDNTRNSLSLQMNSLRIEDTALYYCAKDKSGYGSFYYGLDVWGQGTTVTVSS
VL: B13 VL with N31S, L95S
notes: H1H: human IgG1 Fc; divalent
B16: H1H5772S (antibody, V domains shown)
VH: B13 VH with E1Q, N31D, S55G, S87F, N88T, M93L
VL: B13 VL with T10I, L95S
notes: H1H: human IgG1 Fc; divalent; also called H1H5772P

molecular target: T1, Soluble heterodimeric CD3 protein (hCD3-epsilon/hCD3-delta) with either a human Fc tag (hFcΔAdp/hFc) or a … (human, UniProt P07766 23-126; P04234 22-105); experiment: SPR Biacore 25C antibody-capture
T1 construct: also called hCD3ε/δ; not shown: Fc tag: human (hFcΔAdp/hFc)
Protocol: (§1) Measurements were conducted on a T200 Biacore™ instrument.
Soluble heterodimeric CD3 protein (hCD3-epsilon/hCD3-delta; SEQ ID NOs:1652/1653) with either a human Fc tag (hFcΔAdp/hFc; SEQ ID NOs:1683/1684) or a mouse Fc tag (mFcΔAdp/mFc; SEQ ID NOs:1685/1686) was injected over the antibody captured surface and the binding response was recorded. Heterodimeric CD3 protein was purified using the method described in Davis et al. (US2010/0331527).
(§2) Kinetic association (kₐ) and dissociation (kd) rate constants were determined by processing and fitting the data to a 1:1 binding model using Scrubber 2.0 curve fitting software. Binding dissociation equilibrium constants (KD) and dissociative half-lives (t₁₁₂) were calculated from the kinetic rate constants as: KD (M)=kd/kₐ; and t_{1/2} (min)=(ln 2/(60*kd). NT=not tested; NB=no binding observed.

T1 sequence (P07766 23-126 limits assumed, stated change not applied, chain 1 of 2): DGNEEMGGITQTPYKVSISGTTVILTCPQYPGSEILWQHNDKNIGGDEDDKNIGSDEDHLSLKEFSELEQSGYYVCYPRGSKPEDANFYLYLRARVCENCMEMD
T1 sequence (P04234 22-105 limits assumed, stated change not applied, chain 2 of 2): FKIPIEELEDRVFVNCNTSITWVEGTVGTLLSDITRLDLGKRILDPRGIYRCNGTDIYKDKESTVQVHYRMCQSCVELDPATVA

Kd [nM] | T½ [min] | koff [s⁻¹] | kon [M⁻¹ s⁻¹] | Binder
118 | 15 | 0.000785 | 6630 | B1
233 | 10 | 0.00117 | 5020 | B2
32.6 | 43 | 0.000266 | 8150 | B3
44.7 | 30 | 0.000382 | 8540 | B4
85.4 | 11 | 0.00108 | 12600 | B5
28.3 | 22 | 0.000517 | 18200 | B6
33.3 | 20 | 0.000576 | 17300 | B7
579 | 1 | 0.00788 | 13600 | B8
72.5 | 15 | 0.00079 | 10900 | B9
27.8 | 75 | 0.000154 | 5520 | B10
2920 | 0 | 0.054 | 18500 | B11
3820 | 1 | 0.0159 | 4160 | B12
20.9 | 18 | 0.000626 | 30000 | B13
57.7 | 23 | 0.000497 | 8610 | B14
30.4 | 29 | 0.000399 | 13100 | B15
99.6 | 7 | 0.00155 | 15600 | B16

molecular target: T1, Soluble heterodimeric CD3 protein …; experiment: SPR Biacore 25C antigen-capture
Protocol: as §1
In the antigen-capture format, heterodimeric CD3 protein was captured using a rabbit anti-mouse Fc or mouse anti-human Fc and the respective antibodies were injected over the captured antigen.
as §2

Kd [nM] | T½ [min] | koff [s⁻¹] | kon [M⁻¹ s⁻¹] | Binder
1.64 | 39 | 0.000295 | 180000 | B1
3.97 | 21 | 0.000562 | 142000 | B2
0.767 | 105 | 0.000111 | 144000 | B3
0.333 | 73 | 0.000159 | 478000 | B4
0.141 | 27 | 0.000424 | 3e+06 | B5
0.254 | 49 | 0.000236 | 925000 | B6
0.145 | 50 | 0.000229 | 1.58e+06 | B7
7.85 | 2 | 0.00564 | 718000 | B8
0.433 | 34 | 0.00034 | 786000 | B9
0.0856 | 338 | 3.42e-05 | 399000 | B10
92.4 | 1 | 0.017 | 184000 | B11
21 | 2 | 0.00736 | 350000 | B12
0.371 | 34 | 0.000342 | 923000 | B13
1.92 | 43 | 0.000268 | 140000 | B14
0.358 | 68 | 0.000171 | 478000 | B15
1.67 | 13 | 0.000869 | 519000 | B16
